Data reported in publication PMC8640787.

Biological target: gastrin-releasing peptide receptor (GRPR) with a C-terminal NLuc tag (human) (UniProt P30550)
Test: FRET or BRET

Chain of UniProt P30550 (P30550 whole entry): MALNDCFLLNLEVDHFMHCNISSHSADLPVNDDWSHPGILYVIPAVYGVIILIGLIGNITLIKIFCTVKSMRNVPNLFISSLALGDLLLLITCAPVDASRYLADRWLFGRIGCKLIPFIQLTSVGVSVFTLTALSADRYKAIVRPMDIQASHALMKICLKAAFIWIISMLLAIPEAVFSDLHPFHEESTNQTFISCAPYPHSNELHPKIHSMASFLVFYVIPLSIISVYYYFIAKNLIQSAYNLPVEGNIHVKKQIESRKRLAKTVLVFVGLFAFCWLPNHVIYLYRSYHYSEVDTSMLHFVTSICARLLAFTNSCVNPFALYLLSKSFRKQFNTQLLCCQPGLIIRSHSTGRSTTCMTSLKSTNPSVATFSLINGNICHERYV

efficacy of miniGq recruitment with AG-2-BBN-1 (% of AMBA): 57%
Substance: venus-mGq (engineered mini Gαq probe)
